Assay results taken from doi:10.64898/2025.12.10.693372.

Experiments:
[1] = biological target: SARS-CoV-2 Omicron JD.1.1 spike (S-6P) (SARS-CoV-2) (UniProt P0DTC2); test: cryo-EM structure
[2] = biological target: SARS-CoV-2 Omicron LP.8.1 spike (S-6P) (SARS-CoV-2) (UniProt P0DTC2); test: cryo-EM structure

| Substance | stoichiometry N [1] | stoichiometry N [2] |
| --- | --- | --- |
| SARS-CoV-2 Omicron JD.1.1 spike (S-6P) (from UniProt P0DTC2 14-1211) (natural protein) | 3 | – |
| SARS-CoV-2 Omicron LP.8.1 spike (S-6P) (from UniProt P0DTC2 14-1211) (natural protein) | – | 3 |
